Blank lines part the entries; values can stand above or below the molecule they belong to. Square brackets hold non-standard residues; d marks the D form. Primed or numbered codes have the meaning given here. Ends that are not written are not given here. PEG3′ = three-unit polyethylene glycol linker
How the values were obtained:
[1] = target: His-SUMO-XB-GGS (E. coli); test: BLI; His-SUMO-tagged peptide loaded on Octet NTA biosensors (150 nM Anchor-Linker or 100 nM GroTAC1), blocked with His-SUMO; ClpX 1 uM to 31.25 nM in solution; 30 °C; 25 mM HEPES pH 8.0, 200 mM KCl, 10 mM MgCl2, 0.05% Tween-20, 2.5 mM ATP; 1:1 model
[2] = target: His-SUMO-XB-GGS-SBP (E. coli); test: as above
[3] = target: His-SUMO-XB-GGS (E. coli); test: BLI; His-SUMO-tagged peptide loaded on Octet NTA biosensors (150 nM Anchor-Linker or 100 nM GroTAC1), blocked with 86 nM His-SUMO; ClpX as analyte, 1 uM to 31.25 nM; 30 C; 25 mM HEPES pH 8.0, 200 mM KCl, 10 mM MgCl2, 0.05% Tween-20, 2.5 mM ATP; 1:1 fit
[4] = target: His-SUMO-XB-GGS-SBP (E. coli); test: as above
[5] = target: His-SUMO-XB-GGS-SBP (E. coli); test: BLI; His-SUMO-tagged peptide loaded on Octet NTA biosensors (200 nM Linker-Bait or 400 nM GroTAC1), blocked with His-SUMO; GroEL 2.5 uM to 78.1 nM in solution; 30 °C; 25 mM HEPES pH 8.0, 300 mM KCl, 10 mM MgCl2, 0.05% Tween-20, 12.5 mM ATP; 1:1 model
His-SUMO-GGS-SBP [6] = test: as above
[7] = target: His-SUMO-XB-GGS-SBP (E. coli); test: BLI; His-SUMO-tagged peptide loaded on Octet NTA biosensors (200 nM Linker-Bait or 400 nM GroTAC1), blocked with 257 nM His-SUMO; GroEL as analyte, 2.5 uM to 78.1 nM; 30 C; 25 mM HEPES pH 8.0, 300 mM KCl, 10 mM MgCl2, 0.05% Tween-20, 12.5 mM ATP; 1:1 fit
His-SUMO-GGS-SBP [8] = test: as above
His-ZBD = target: T1, His-ZBD (E. coli, UniProt P0A6H1 1-52); test: BLI; 1.37 uM His-ZBD loaded on Octet NTA biosensors, blocked with 600 nM cAbGFP; untagged synthetic peptide as analyte, 1 uM to 31.25 nM; 30 C; 25 mM HEPES pH 8.0, 200 mM KCl, 10 mM MgCl2, 2.5 mM ATP, 0.05% Tween 20; 1:1 fit; settings: both partners purified
T1 construct: also called 6xHis-ZBD; source: E. coli BL21 DE3, purified (HisTrap, Superdex200); not shown: His6, N-terminal, kept
T1 sequence (looked up): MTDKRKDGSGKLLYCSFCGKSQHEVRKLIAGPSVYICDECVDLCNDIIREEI

Molecule: ClpX (from UniProt P0A6H1 1-424) (enzyme)
- Kd [1]: 65 nM
- Kd [2]: 70 nM
- Kd [3]: 64.8 nM
- koff [3]: 0.00495 s⁻¹
- kon [3]: 76500 M⁻¹ s⁻¹
- Kd [4]: 70.4 nM
- koff [4]: 0.00769 s⁻¹
- kon [4]: 109000 M⁻¹ s⁻¹

B1: GroTAC3 (synthetic) (designed binder)
peptide: CYRGGRPALRVVK[PEG3′]SWMTTPWGFHLP
notes: residues 17-28 in the model PDB 8S32; the (PEG)3 linker is no amino acid stretch; also called XB-PEG3-SBP; source: synthetic peptide (KareBay Biochem)
- Kd (His-ZBD): 82.4 nM
- koff (His-ZBD): 0.000915 s⁻¹
- kon (His-ZBD): 11100 M⁻¹ s⁻¹

More lines, now with the values ahead:

- Kd [5]: 154 nM
- Kd (His-SUMO-GGS-SBP [6]): 94 nM
- koff [7]: 0.00409 s⁻¹
- kon [7]: 26600 M⁻¹ s⁻¹
- Kd (His-SUMO-GGS-SBP [8]): 93.6 nM
- koff (His-SUMO-GGS-SBP [8]): 0.00919 s⁻¹
- kon (His-SUMO-GGS-SBP [8]): 98200 M⁻¹ s⁻¹
Molecule: GroEL (from UniProt P0A6F5 1-548) (natural protein)

- Kd (His-ZBD): 52.6 nM
- koff (His-ZBD): 0.00165 s⁻¹
- kon (His-ZBD): 31400 M⁻¹ s⁻¹
B2: GroTAC2 (synthetic) (designed binder)
peptide: CYRGGRPALRVVKGGSGGSGGSWMTTPWGFHLP
notes: flexible linker; also called untagged, synthetic GroTAC2; source: synthetic peptide (GeneScript)

— PMC12373786, “Targeted protein degradation in Escherichia coli using CLIPPERs” (EMBO Reports, 2025)
